Experimental data taken from the supplement of paper PMC12042874.
± gives the uncertainty stated by the source.

Experiment: amyloid nucleation score (Sup35N fusion, yeast selection) (log enrichment); library NNK2; higher = more nucleation; inactive = no reads after selection
Method in brief: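 Sup35N was fused to peptides of 20 random codons and expressed in psi-negative yeast, which were induced with 100 μM copper sulfate for 24 hours and then grown on medium lacking adenine and uracil for 7 days at 30°C. Plasmid inserts from input and output were sequenced on Illumina. The nucleation score is the DiMSum log enrichment of output over input reads, centred on the mode score of non-aggregating sequences. Sequences with under 100 input reads were left out, and random libraries had three technical output replicates.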

Row | Substance | amyloid nucleation score
1 | SYYDGCQS | 0.646 ± 0.49
2 | TAGWIFEWTFGPVYVFNSPW | 8.016 ± 0.061
3 | TAHYLFTWTLSNVILVCGYD | -0.867 ± 0.48
4 | TATETFAF | -0.28 ± 0.28
5 | TCAQYKHGTTVDSNLRSTY | -0.515 ± 0.48
6 | TCDCIIARFDALTSISRLAL | 1.02 ± 0.41
7 | TCDKLGAVVMSLLECVNEAP | 0.205 ± 0.77
8 | TCDWVVLIYPSSGCCRLEWR | 0.99 ± 0.36
9 | TCKMIAISRRGIDPGKAMHS | -1.16 ± 0.49
10 | TCLAESGVAMSVS | 0.151 ± 0.29
11 | TCLTGKAVSVDHS | inactive
12 | TCQLMMCNFVFCCKMTSTLK | 8.252 ± 0.047
13 | TCRTSTRRPIGWLSWYVG | 0.654 ± 0.43
14 | TCVAACTSRRGGISRLLPGN | -0.295 ± 0.38
15 | TCWSFECTIEACLLDHVSTR | 5.97 ± 0.081
16 | TDCIWFHYLVTLWFLIRRCP | 0.741 ± 0.66
17 | TDIKNRHILSNPWIRLYFLI | -1.16 ± 0.62
18 | TDLIAVGCPLMYSMRE | 2.04 ± 0.35
19 | TDNVIMVERDRASKVCERKG | 0.433 ± 0.54
20 | TDRIDCAFAYDYL | -1.08 ± 0.54
21 | TDVPSRIGPDMGKYLKAES | 0.655 ± 0.62
22 | TDYYAMWFHSIGRFSG | -1.33 ± 0.38

Row | Substance | amyloid nucleation score
23 | TECITVVIWVYGAISHRSGT | -0.247 ± 0.27
24 | TEMWFDGRNSRMIQAH | 0.081 ± 0.36
25 | TEPSGTGKTRGSQRTLHRYV | -0.323 ± 0.79
26 | TFAATIGTCMVEILSMGSPG | 0.603 ± 0.52
27 | TFATIRVAFMVMCRFDG | 3.23 ± 0.084
28 | TFDPMVGLGISLSALCMGRL | -0.104 ± 0.39
29 | TFFMVGNMNNTPSPRPARTK | 4.57 ± 0.089
30 | TFGLHIHKPRMPPHGPWFSL | -0.172 ± 0.34
31 | TFINAGFRLHFRFYRFVFSK | -0.717 ± 1
32 | TFLGLS | 0.658 ± 0.26
33 | TFLWK | -0.349 ± 0.55
34 | TFMKGTVIT | 0.759 ± 0.74
35 | TFMMLMEHGRIYFLWASPVA | -1.68 ± 1.1
36 | TFPNLHFCFTLLLYKGCVCG | -0.101 ± 1.1
37 | TFVLLRSW | 2.34 ± 0.13
38 | TFWGTTY | inactive
39 | TFYIYGIHSLA | -0.917 ± 0.34
40 | TGAGVNTGEFCWVDPRSDYQ | -0.161 ± 1.1
41 | TGCWVEERTRLRLRIYDLLY | 0.004 ± 1.1
42 | TGENI | inactive
43 | TGLDIGLGWLYMYRGATLAI | 0.542 ± 0.35
44 | TGNDFSCFPRALEMATWTTV | 0.016 ± 1.1

Row | Substance | amyloid nucleation score
45 | TGRFLEVREQRRDARVEMSR | 0.183 ± 1
46 | TGRITVRRGSHLSLWKSMRL | 0.697 ± 0.27
47 | TGRLPLFLQGLDEYPASNPE | -0.288 ± 1.1
48 | TGSVDSSSIV | 0.093 ± 0.42
49 | THDPNLRCYFVIGTELHSRT | 0.126 ± 0.8
50 | THFSPMGY | -0.586 ± 1.1
51 | THLHQD | -1.55 ± 0.76
52 | THVLIFFMVLDLGPFKTGAD | -0.441 ± 1.1
53 | THVNFW | inactive
54 | THWSCSSKLFGEFGWNFVWK | 2.89 ± 0.067
55 | THYGLMVCQTPVGRRSASCR | 1.32 ± 0.28
56 | TIARVIFNPVLCWKVSSRV | 5.52 ± 0.063
57 | TICSHKRKYNWMIGWRMSTF | 0.142 ± 0.45
58 | TICYV | -0.564 ± 0.35
59 | TIFGRENYEDVKSASEVGLS | 0.135 ± 0.79
60 | TIFHLRDSYINHAKLSSLHG | inactive
61 | TIMYYVWCLFFWMCLGYGHS | 1.53 ± 0.1
62 | TIRFS | -1.58 ± 0.37
63 | TIYPFYEKRMRY | -0.459 ± 1.1
64 | TKLYNDIFHNW | inactive
65 | TKMVCSKRMFVECVLNLF | 0.221 ± 0.31
66 | TKPNVW | -0.067 ± 0.8

Row | Substance | amyloid nucleation score
67 | TKSVVLMNSMSS | 0.072 ± 1.1
68 | TKVGYLNS | inactive
69 | TLDFCEL | inactive
70 | TLECW | 4.1 ± 0.049
71 | TLENQVGSMSIGGFSGGYRR | 0.201 ± 1
72 | TLFGHFSYFQD | -0.124 ± 0.65
73 | TLFQLFIYLTFKVQVVAGTT | 3.92 ± 0.083
74 | TLFSVCSIHEQWPGEVMVSY | 0.918 ± 0.47
75 | TLFVKTYMSVFYIIACSSC | -0.218 ± 0.64
76 | TLIAYCLL | 7.492 ± 0.046
77 | TLKEGRWEVPCLIWIWRVWS | 1.6 ± 0.36
78 | TLKVCSVLIYLYWN | -1.34 ± 0.75
79 | TLLLTWQY | 4.46 ± 0.067
80 | TLLNAYNNTLVWIWFVSMPV | 5.46 ± 0.081
81 | TLQCDVNTVLILHVYTTYKS | 1.13 ± 0.24
82 | TLQLSSADPGLNAFSDVYRV | -0.627 ± 1.1
83 | TLRIGDFPWISWSEGVWVGG | 0.244 ± 0.65
84 | TLTLCTSSLDC | 1.1 ± 0.61
85 | TLTYYPFMRYAFTVSLWFLF | -1.83 ± 1.1
86 | TLVHNFGCSLGHLKFRQNMW | -0.33 ± 1.1
87 | TLYVVYLDEICYLLFKVSYC | 1.2 ± 0.66
